Laboratory results as given in article PMC5539292, “Calcium Ion Induced Structural Changes Promote Dimerization of Secretagogin, Which Is Required for Its Insulin Secretory Function” (Scientific Reports, 2017).
Values belong to the molecule of their own block, whether it stands above or below them.

Experiments:
[1] = target: recombinant human secretagogin (hSCGN) wild type (human) (UniProt O76038); test: SEC; 450 µg protein on Superdex 200 HR 10/30 in PBS, 0.5 mL/min; samples pretreated with EGTA and DTT, then treated with Ca^2+ and H2O2
[2] = target: the molecule itself; test: non-reducing SDS-PAGE of disulfide-linked dimers; recombinant protein incubated with 0 or 2 mM CaCl2 at R.T. for 15 min, then H2O2 at 37°C for 1 h; Coomassie blue staining

- stoichiometry N [1]: 2
Molecule: recombinant human secretagogin (hSCGN) wild type (from UniProt O76038 1-276) (natural protein)

B1: purified hSCGN ΔEF1 (deletion of 1-52 a.a.) (domain or fragment, human, UniProt O76038 53-276, looked up)
chain: TVMKANLHKVKQQFMTTQDASKDGRIRMKELAGMFLSEDENFLLLFRRENPLDSSVEFMQIWRKYDADSSGFISAAELRNFLRDLFLHHKKAISEAKLEEYTGTMMKIFDRNKDGRLDLNDLARILALQENFLLQFKMDACSTEERKRDFEKIFAYYDVSKTGALEGPEVDGFVKDMMELVQPSISGVDLDKFREILLRHCDVNKDGKIQKSELALCLGLKINP
notes: human secretagogin (SCGN) without residues 1-52 (EF1); The methods describe ΔEF1 only as a pcDNA3.1 construct; also called ΔEF1 protein; recombinant ΔEF1; source: purified recombinant protein
- binding result [2]: binds
